Here are results for 1 molecule from article PMC10562830.

In this test the target is Chikungunya virus-like particles of the 37997 strain (chikungunya virus (strain 37997)).

B1: 506.C01 (antibody, V domains shown)
VH: QVQLQESGPGLVKPSQTLSLTCTVSGGSISSDDYYWTWIRLPPGKGLEWIGYIFYTGGTYYNPSLKSRVTISLDRSKNQFSLKLSSVTAADTAVYFCARAPETYCSTTNCYKGYFDSWGQGTLVTVSS
VL: DIQMTQSPSSVSASVGDRVTITCRASQGISSWLGWYQQKPGKAPKLLIYAASSLQSGVPSRFSGSGSGTDFTLTISSLQPEDFATYYCQQANSFPRTFGQGTKVEIK
In the case of B1, the FRNT neutralisation of CHIKV-37997 and CHIKV-LR 2006 on Vero cells, EC50 is below 10 ng/mL.
